In test [1] the target is Recombinant A/South Carolina/1/1918 virus HA (influenza A/South Carolina/1/1918 …, UniProt Q9WFX3 18-520).
Test [2] concerns the target T1, 1918 HA displayed on 1918 virus-like particles, reconstituted 1918 virus or transfected cells (influenza A/South Carolina/1/1918 …, UniProt Q9WFX3 18-566). Briefly: cell-based or functional assay.
Test [3] concerns the target T1, 1918 HA displayed on 1918 virus-like …. Nature of the test: cell-based or functional assay. The source holds these as a separate data set.
The target is the same in test [4].

T1 sequence (Q9WFX3 18-566): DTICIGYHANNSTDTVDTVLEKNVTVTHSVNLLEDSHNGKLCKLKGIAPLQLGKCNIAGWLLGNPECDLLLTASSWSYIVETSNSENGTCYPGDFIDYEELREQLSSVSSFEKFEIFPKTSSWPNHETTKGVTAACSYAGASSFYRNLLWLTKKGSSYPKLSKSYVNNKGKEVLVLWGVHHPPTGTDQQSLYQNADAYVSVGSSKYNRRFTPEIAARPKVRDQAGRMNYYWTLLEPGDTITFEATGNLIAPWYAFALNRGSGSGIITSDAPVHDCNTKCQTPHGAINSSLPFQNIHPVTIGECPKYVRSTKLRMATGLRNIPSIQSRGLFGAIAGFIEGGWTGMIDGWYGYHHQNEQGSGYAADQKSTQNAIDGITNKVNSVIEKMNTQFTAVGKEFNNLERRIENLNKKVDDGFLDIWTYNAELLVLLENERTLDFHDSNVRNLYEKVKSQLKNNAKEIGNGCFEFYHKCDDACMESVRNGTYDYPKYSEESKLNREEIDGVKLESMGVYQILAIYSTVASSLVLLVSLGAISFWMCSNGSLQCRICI
Recombinant A/South Carolina/1/1918 virus HA, sequence (Q9WFX3 18-520 limits assumed): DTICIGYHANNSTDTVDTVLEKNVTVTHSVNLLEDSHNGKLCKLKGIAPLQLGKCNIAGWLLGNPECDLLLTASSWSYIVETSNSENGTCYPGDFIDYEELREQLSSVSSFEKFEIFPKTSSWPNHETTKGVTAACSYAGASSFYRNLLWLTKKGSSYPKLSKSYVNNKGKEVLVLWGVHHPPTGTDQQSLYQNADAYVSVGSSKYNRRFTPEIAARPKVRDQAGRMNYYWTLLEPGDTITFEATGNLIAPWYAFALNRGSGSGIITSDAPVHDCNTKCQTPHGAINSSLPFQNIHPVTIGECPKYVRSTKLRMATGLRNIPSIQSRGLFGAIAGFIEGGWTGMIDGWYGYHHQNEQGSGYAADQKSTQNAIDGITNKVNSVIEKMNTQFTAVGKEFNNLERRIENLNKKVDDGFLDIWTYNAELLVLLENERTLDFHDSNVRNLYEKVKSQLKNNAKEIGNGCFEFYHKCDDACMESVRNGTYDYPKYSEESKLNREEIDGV

B1: mAb 1I20 (antibody, V domains shown)
VH: EVQLVESGGGVVQPGGSLRLSCIASAFNLGIFGMHWVRQAPGKGLEWVAFIRYDGGKTFYADSVKGRFTISRDNSKNTLYLQMNSLRTEDTALYYCARDATADYYGPGSYPNWLDPWGQGTLVTVS
VL: DIRLTQSPATLSVSPGERATLSCRASHSVSRNLAWYQQKPGRAPRLLVYDTSSRATGIPARFSGSGSGTEFTLTISSLQSEDFAVYYCQQYNNWPRTFGQGTKVDIK
Consider B1, for which, in test [1], the Kd worked out at 0.048 nM, the koff was 1.4e-05 s⁻¹ and the kon was 290000 M⁻¹ s⁻¹. In test [2], the “Specific HAI activity” value was determined as 0.16 µg/mL. In test [3], the “HAI, specific activity of indicated mAb” value stood at 0.28 µg/mL.

B2: mAb 2D1 (antibody, V domains shown)
VH: EVQLVESGPALVKPTQTLTLTCSFSGFSLSTSGMSVSWIRQPPGKALEWLALIDWDDDTYYITYSSSLKTRLTISKDTSKSQVVLTMTNMDPVDTATYYCARTLRVSGDYVRDFDLWGRGTLVTVS
VL: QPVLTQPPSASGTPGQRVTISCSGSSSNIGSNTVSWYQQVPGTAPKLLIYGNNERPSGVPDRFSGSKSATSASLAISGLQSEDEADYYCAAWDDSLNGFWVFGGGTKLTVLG
In the case of B2, in test [1], the equilibrium dissociation constant (Kd) was found to be 0.25 nM, the off-rate constant (koff) came out at 1e-05 s⁻¹ and the on-rate (kon) stood at 39000 M⁻¹ s⁻¹. In addition, the “Specific HAI activity” value in test [2] was 0.01 µg/mL. In test [3], the “HAI, specific activity of indicated mAb” value amounted to 0.025 µg/mL.

B3: mAb 1F1 (antibody, V domains shown)
VH: EVQLVQSGGGVVQPRRSLRLSCAASGFTFSSYAMHWVRQAPGKGLEWVAVISYDGRNKYYADSVKGRFTVSRDNSKNTLYLQMNSLRAEDTSVYYCARELLMDYYDHIGYSPGPTWGQGTLVTVSS
VL: QPVLTQPPSASGSPGQRVTISCSGSSSNIGSYTVNWYQQLPGTAPKLLIYSLNQRPSGVPDRFSGSKSGTSASLAISGLQSEDEAVYYCAAWDDSLSAHVVFGGGTKLTVLG
On to B3, for which, in test [1], the equilibrium dissociation constant (Kd) came to 5.4 nM, the koff is 0.00017 s⁻¹ and the on-rate constant (kon) worked out at 31000 M⁻¹ s⁻¹. Further, the “Specific HAI activity” value in test [2] amounted to 0.08 µg/mL. Moreover, the “HAI, specific activity of indicated mAb” value in test [3] stood at 0.04 µg/mL.

B4: mAb 2B12 (antibody, V domains shown)
VH: EVQLQESGPGLVKPSQTLSLTCNVSGGSITGDYKWSWIRQPPGKGLEWIGHIHSTGTTYYNPSLRSRITISMDTSKNNLSLRLTSVTAADTAVYYCASHTLTSGHYPRDFDFWGQGTLVTVSS
VL: SYVLTQPPSVSGTPGQRVIISCSGYSSNIGSNTVNWYQQFPGTAPRLLIYANNQRPPGVPDRFSGSKSGTSASLAISGLQSDDESDYYCAAWDDSLNGHWVFGGGTKLTVLG
B4: in test [1], the equilibrium dissociation constant (Kd) stood at 6.2 nM, the koff was determined as 0.00012 s⁻¹ and the on-rate constant (kon) turned out to be 18000 M⁻¹ s⁻¹. Moreover, the “EC50 (read off the curve)” value in test [4] is ~0.02 µg/mL. The “Specific HAI activity” value in test [2] is 0.31 µg/mL. Besides, the “HAI, specific activity of indicated mAb” value in test [3] turned out to be 0.32 µg/mL.

B5: mAb 4D20 (antibody, V domains shown)
VH: EVQLVESGPVLVKPTETLTVTCTVSGFSVDNDRMGVSWIRQPPGKALEWLAHIFSNDEKSYSTSLRSRLTISKDTSKRQVVLSMTDMDPVDTATYYCARAPSEYAAMDVWGQGTMVTVS
VL: SYVLTQPPSVSVAPGETATVTCGGNNIGSKSVHWYQQKPGQAPVVVIYYDGDRPSGIPERFSGSNSGDTATLTISRVEAGDEADYYCLVWDYTSVHYVFGTGTKVTVLG
Take B5: in test [1], the Kd was 0.14 nM, the koff amounted to 1e-05 s⁻¹ and the association rate constant (kon) worked out at 170000 M⁻¹ s⁻¹. Besides, in test [2], the “Specific HAI activity” value was found to be 0.04 µg/mL. Besides, the “HAI, specific activity of indicated mAb” value in test [3] worked out at 0.04 µg/mL.

Source of the values: patent US20120100142A1 (VANDERBILT UNIVERSITY, published 2012).
